# “And” between values parts separate entries of the source, which are not always exact repeats. Identical values can stand only once. Like-named read-outs stand apart in the source and are kept apart here. Where no end group is shown, it is not given here.
# T1: Tom70:Orf9b_(Helix) complex (human | SARS-CoV-2, UniProt O94826 108-608)
# T1 chain 1: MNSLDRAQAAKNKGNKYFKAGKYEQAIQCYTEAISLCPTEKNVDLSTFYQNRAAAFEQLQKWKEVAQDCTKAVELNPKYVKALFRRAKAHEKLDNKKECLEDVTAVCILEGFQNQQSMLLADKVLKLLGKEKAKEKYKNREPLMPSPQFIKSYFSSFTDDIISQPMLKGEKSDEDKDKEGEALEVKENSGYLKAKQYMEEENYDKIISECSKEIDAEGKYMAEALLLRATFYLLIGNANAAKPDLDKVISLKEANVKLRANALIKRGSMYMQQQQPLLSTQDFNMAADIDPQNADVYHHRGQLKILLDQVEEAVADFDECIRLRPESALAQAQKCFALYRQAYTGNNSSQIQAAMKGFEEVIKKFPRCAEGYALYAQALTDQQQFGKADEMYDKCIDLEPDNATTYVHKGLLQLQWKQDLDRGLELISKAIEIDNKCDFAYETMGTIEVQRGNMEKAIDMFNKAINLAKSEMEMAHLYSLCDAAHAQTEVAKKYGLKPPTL
# T1 chain 2: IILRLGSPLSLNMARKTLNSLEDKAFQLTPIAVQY
# T2: human Tom70 (residues 108–608) (human, UniProt O94826 108-608)
# T2 chain: T1 chain 1
# How the values were obtained:
# [1] = target: T1, Tom70:Orf9b_(Helix) complex; assay: ITC
# [2] = target: T2, human Tom70 (residues 108–608); assay: ITC; run 3
# [3] = target: T2, human Tom70 (residues 108–608); assay: ITC
# [4] = target: T1, Tom70:Orf9b_(Helix) complex; assay: ITC
# [5] = target: T2, human Tom70 (residues 108–608); assay: ITC; run 2
# [6] = target: T2, human Tom70 (residues 108–608); assay: ITC; average
# [7] = target: T2, human Tom70 (residues 108–608); assay: ITC; run 1
binder,measurement,setting,value
YDTSRMEEVD-OH [Hsp90_(EEVD) peptide],Kd,[1],12.4 µM and 12.8 µM and 12.3 µM and 11.8 µM
same,Kd,[2],11.9 µM
same,Kd,[3],12 µM
same,Kd,[4],12 µM
same,Kd,[5],10.9 µM
same,Kd,[6],11.9 µM
same,Kd,[7],12.8 µM

# Reference: doi:10.1101/2025.11.18.689095 (2025)
